Assay results reported in US20170204167A1.

Tests used:
[1] = molecular target: HA of H3N2 A/Brisbane/10/07 (influenza A virus H3N2 A/Brisbane/10/07); assay: ELISA on HA
[2] = molecular target: HA of B/Ohio/1/05 (influenza B virus B/Ohio/1/05); assay: ELISA on HA
[3] = molecular target: HA of H3N2 A/Wyoming/3/03 (influenza A virus H3N2 A/Wyoming/3/03); assay: ELISA on recombinant or purified HA
[4] = molecular target: HA of H3N2 A/New York/55/04 (influenza A virus H3N2 A/New York/55/04); assay: ELISA on recombinant or purified HA
[5] = molecular target: HA of H3N2 A/Brisbane/10/07 (influenza A virus H3N2 A/Brisbane/10/07); assay: ELISA on recombinant or purified HA
[6] = molecular target: HA of H1N1 A/Brisbane/59/07 (influenza A virus H1N1 A/Brisbane/59/07); assay: ELISA on recombinant or purified HA

| Binder | Binding to HA by ELISA (% of subtype specific control antibodies) [1] [%] | EC50 [2] [µg/mL] | EC50 [3] [µg/mL] | EC50 [4] [µg/mL] | EC50 [5] [µg/mL] | EC50 [6] [µg/mL] |
| --- | --- | --- | --- | --- | --- | --- |
| FI6 variant 2 (antibody, V domains shown) VH: QVQLVQSGGGVVQPGRSLRLSCVASGFTFSTYAMHWVRQAPGRGLEWVAVISYDGNYKYYADSVKGRFSISRDNSNNTLHLEMNTLRTEDTALYYCAKDSQLRSLLYFEWLSQGYFDPWGQGTLVTVTS VL: DIQMTQSPDSLAVSLGARATINCKSSQSVTFNYKNYLAWYQQKPGQPPKVLIYWASARESGVPDRFSGSGSGTDFTLTISSLQAEDVAVYYCQQHYRTPPTFGQGTKVEIK | 68.5 | > 20 | 0.019 | 0.032 | 0.041 | 0.015 |
| FI28 variant 1 (antibody, V domains shown) VH: EVQLVESGGGAVQPGESLKLSCAASGFTFSNYGMHWVRQAPGKGLEWVAVISYDGSNKYYADSVKGRFTISRDNSKDTLYLQMNSLRAEDTALFYCAKERPLRLLRYFDWLSGGANDYWGQGTLVTVSS VL: DIVMTQSPDSLAVSLGERATINCKSSQSVLYSSNNKNYLAWYQQKPGQPPKLLIDWASTRESGVPDRFSGSGSGTDFTLTISNLQVEDVAVYYCQQYYRSPSFGQGTKLEIK | 1.3 | – | – | – | – | – |
